Source: patent US20050090448A1 (BAXTER INTERNATIONAL, published 2005)
Bridges are numbered along the chain shown (N, C = ends). Where no end group is shown, it is not given here.

B1: Peptide 7 (SEQ ID NO 7) (peptide)
peptide: SFNDLLWRWEWP
B2: Peptide 8 (SEQ ID NO 8) (peptide)
peptide: DSTWTNFRWEFY
B3: Peptide 13 (SEQ ID NO 13) (peptide)
peptide: TQDNRWEFPLRV
B4: Peptide 6 (SEQ ID NO 6) (peptide)
peptide: SDMCAAPWLCPV
modifications: disulfide 4-10 (inferred)

Biological target: complement component C5 in pooled human plasma (human, UniProt P01031 19-1676)
Assay: cell-based or functional assay

Chain of complement component C5 in pooled human plasma (P01031 19-1676 limits assumed): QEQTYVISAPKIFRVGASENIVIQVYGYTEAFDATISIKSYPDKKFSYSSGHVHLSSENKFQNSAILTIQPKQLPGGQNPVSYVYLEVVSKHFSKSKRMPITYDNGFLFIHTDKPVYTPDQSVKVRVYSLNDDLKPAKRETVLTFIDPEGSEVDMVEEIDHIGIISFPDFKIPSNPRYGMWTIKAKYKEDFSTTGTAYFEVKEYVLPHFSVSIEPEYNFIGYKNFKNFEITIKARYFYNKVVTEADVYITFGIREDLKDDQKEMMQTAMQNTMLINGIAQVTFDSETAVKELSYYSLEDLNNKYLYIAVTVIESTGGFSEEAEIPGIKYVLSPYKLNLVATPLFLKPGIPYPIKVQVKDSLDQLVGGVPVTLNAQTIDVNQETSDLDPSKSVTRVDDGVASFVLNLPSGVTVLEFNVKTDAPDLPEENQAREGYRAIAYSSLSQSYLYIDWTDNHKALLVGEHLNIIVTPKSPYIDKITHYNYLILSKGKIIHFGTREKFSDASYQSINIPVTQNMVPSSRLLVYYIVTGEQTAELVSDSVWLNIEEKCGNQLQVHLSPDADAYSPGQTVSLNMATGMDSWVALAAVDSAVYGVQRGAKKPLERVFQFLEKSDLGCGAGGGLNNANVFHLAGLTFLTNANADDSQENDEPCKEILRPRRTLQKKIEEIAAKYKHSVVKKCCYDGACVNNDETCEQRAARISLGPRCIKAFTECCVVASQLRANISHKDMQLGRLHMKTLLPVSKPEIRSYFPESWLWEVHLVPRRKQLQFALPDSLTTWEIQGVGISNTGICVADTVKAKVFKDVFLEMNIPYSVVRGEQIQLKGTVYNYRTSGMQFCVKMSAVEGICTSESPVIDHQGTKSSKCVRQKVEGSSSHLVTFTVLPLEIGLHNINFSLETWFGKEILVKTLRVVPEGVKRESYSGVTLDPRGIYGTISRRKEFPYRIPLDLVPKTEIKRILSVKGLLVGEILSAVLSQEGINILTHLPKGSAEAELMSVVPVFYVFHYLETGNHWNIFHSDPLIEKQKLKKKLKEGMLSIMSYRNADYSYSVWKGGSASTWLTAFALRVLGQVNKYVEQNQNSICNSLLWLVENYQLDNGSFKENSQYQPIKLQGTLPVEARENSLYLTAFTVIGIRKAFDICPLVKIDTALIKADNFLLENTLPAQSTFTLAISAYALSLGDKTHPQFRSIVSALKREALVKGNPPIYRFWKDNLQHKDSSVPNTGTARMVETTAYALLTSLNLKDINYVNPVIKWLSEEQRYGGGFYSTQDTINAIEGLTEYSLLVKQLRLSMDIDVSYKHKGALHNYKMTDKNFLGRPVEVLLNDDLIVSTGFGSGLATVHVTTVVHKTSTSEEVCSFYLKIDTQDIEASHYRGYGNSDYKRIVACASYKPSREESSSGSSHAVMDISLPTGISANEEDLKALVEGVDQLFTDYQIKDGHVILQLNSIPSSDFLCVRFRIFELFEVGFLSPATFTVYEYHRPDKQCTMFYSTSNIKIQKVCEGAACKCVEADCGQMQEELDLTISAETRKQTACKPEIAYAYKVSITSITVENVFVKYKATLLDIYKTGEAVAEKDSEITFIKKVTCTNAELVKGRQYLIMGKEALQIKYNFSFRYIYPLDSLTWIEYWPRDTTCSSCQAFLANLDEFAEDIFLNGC

Binder | IC50 of inhibition of classical pathway hemolysis (antibody sensitized sheep erythrocytes, human plasma)
B1 | 48.9 µM
B2 | 5.8 µM
B3 | 29.2 µM
B4 | 3 µM
